This note sets out measurements from doi:10.1101/2022.06.02.494578.

Broadly, the Kd is a measure of binding affinity in units of concentration. Low values mean tighter binding, high ones weaker binding.

In experiment [1] the target is taxol-stabilised microtubules polymerised from pig brain tubulin (pig) (UniProt P02550). As to the kind of experiment: TIRF imaging of labeled Lis1 on microtubules.
The target is the same in experiment [2]. As to the kind of experiment: co-sedimentation.

Chain of Lis1 (Pac1, the Lis1 homolog in S. cerevisiae), wild-type dimer (P39946 whole entry): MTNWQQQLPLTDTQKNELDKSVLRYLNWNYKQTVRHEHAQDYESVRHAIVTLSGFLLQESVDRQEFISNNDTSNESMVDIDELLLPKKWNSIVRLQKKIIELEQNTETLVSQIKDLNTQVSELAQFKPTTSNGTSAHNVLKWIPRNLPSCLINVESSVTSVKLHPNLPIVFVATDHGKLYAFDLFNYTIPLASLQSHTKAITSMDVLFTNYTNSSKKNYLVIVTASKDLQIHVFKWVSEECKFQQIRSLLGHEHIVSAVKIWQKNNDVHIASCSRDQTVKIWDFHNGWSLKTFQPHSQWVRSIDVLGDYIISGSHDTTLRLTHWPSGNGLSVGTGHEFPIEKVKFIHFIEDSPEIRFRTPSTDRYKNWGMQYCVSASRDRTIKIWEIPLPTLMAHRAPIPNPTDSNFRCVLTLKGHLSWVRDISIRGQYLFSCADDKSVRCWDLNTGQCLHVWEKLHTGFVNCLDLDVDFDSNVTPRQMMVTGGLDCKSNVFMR
Chain of taxol-stabilised microtubules polymerised from pig brain tubulin (pig) (P02550 whole entry): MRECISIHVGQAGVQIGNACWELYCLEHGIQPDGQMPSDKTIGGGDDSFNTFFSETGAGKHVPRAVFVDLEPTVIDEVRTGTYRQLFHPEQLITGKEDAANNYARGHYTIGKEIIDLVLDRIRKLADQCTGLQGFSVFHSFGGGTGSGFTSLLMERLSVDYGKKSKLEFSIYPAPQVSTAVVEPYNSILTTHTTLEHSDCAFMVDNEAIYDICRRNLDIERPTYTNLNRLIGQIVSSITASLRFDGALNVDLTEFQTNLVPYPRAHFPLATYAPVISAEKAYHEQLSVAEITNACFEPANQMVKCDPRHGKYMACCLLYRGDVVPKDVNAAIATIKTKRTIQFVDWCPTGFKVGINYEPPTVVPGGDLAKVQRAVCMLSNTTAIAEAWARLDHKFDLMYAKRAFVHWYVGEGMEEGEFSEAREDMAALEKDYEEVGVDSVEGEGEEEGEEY
Chain of monomeric Lis1 lacking its amino-terminal dimerization domain (domain or fragment) (A6ZPA6 whole entry, the tested form may be a part): as the sequence (P39946 whole entry) above

In experiment [1], “Lis1 (Pac1, the Lis1 homolog in S. cerevisiae), wild-type dimer (from UniProt P39946 1-494) (natural protein)” had a percent of Lis1 intensity on microtubules lost after washing of 92% and a residence time on the microtubule of 19.3 s. Also, the Kd in experiment [2] came out at 88 nM.

In experiment [1], “monomeric Lis1 lacking its amino-terminal dimerization domain (domain or fragment)” had a time to dissociation from the microtubule of 1 to 2 s.
